Measurements reported in IntAct's records for PubMed 26160948.

B1: Insulin-induced gene 2 protein (Homo sapiens), Q9Y5U4 (parent)
chain: MAEGETESPGPKKCGPYISSVTSQSVNLMIRGVVLFFIGVFLALVLNLLQIQRNVTLFPPDVIASIFSSAWWVPPCCGTASAVIGLLYPCIDRHLGEPHKFKREWSSVMRCVAVFVGINHASAKVDFDNNIQLSLTLAALSIGLWWTFDRSRSGFGLGVGIAFLATVVTQLLVYNGVYQYTSPDFLYVRSWLPCIFFAGGITMGNIGRQLAMYECKVIAEKSHQE
partner: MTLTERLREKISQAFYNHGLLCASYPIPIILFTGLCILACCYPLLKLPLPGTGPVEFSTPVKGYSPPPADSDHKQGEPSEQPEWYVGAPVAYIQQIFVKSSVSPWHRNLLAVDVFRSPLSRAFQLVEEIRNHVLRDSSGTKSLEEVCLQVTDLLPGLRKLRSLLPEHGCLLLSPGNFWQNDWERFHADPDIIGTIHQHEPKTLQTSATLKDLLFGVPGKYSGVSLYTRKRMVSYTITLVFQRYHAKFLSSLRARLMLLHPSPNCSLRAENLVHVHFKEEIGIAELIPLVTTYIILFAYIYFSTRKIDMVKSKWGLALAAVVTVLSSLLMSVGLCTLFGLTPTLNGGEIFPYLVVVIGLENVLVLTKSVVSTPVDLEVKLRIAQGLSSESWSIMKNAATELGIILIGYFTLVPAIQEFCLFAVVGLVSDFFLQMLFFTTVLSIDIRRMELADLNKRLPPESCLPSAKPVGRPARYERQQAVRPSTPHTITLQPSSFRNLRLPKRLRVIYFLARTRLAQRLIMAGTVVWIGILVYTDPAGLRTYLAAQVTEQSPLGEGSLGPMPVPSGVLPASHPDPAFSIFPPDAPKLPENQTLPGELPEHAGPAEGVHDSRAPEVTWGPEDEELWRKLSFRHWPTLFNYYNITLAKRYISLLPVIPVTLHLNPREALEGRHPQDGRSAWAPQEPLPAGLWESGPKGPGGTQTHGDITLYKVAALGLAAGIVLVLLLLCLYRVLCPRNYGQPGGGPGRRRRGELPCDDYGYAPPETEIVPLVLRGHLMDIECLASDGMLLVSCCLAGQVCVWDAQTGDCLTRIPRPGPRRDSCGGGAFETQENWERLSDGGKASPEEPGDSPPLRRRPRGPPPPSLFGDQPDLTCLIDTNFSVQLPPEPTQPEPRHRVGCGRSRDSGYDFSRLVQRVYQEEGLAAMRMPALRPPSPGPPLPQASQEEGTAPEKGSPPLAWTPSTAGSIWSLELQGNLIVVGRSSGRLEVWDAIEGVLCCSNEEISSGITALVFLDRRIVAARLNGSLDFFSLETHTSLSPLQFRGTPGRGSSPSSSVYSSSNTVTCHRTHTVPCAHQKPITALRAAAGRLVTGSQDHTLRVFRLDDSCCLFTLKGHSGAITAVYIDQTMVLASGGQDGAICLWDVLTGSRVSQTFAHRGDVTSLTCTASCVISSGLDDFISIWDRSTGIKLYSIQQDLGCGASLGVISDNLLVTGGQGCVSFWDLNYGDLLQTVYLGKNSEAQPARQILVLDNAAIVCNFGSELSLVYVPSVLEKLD

Variants of: B1
Conditions: with scap_mouse Scap

| Variant | effect of a mutation on the interaction |
| --- | --- |
| MAEGETESPGPKKCGPYISSVTSQSVNLMIRGVVLFFIGVFLALVLNLLQIQRNVTLFPPDVIASIFSSAWWVPPCDGTASAVIGLLYPCIDRHLGEPHKFKREWSSVMRCVAVFVGINHASAKVDFDNNIQLSLTLAALSIGLWWTFDRSRSGFGLGVGIAFLATVVTQLLVYNGVYQYTSPDFLYVRSWLPCIFFAGGITMGNIGRQLAMYECKVIAEKSHQE [C77D] | decreasing interaction strength |
| MAEGETESPGPKKCGPYISSVTSQSVNLMIRGVVLFFIGVFLALVLNLLQIQRNVTLFPPDVIASIFSSAWWVPPCCGTASAVIGLLYPCIDRHLGEPHKFKREWSSVMRCVAVFVGINHASAKVDFDNNIQLSLTLAALSIGLAWTFDRSRSGFGLGVGIAFLATVVTQLLVYNGVYQYTSPDFLYVRSWLPCIFFAGGITMGNIGRQLAMYECKVIAEKSHQE [W145A] | disrupting interaction strength |
| MAEGETESPGPKKCGPYISSVTSQSVNLMIRGVVLFFIGVFLALVLNLLQIQRNVTLFPPDVIASIFSSAWWVPPCCGTASAVIGLLYPCIDRHLGEPHKFKREWSSVMRCVAVFVGINHASAKVDFDNNIQLSLTLAALSIGLWWTFDRSRSGFGLGVGIAFLATVVTQLLVYNGVYQYTSPDFLYVRSWLPCIFFAGFITMGNIGRQLAMYECKVIAEKSHQE [G200F] | decreasing interaction strength |
| MAEGETESPGPKKCGPYISSVTSQSVNLMIRGVVLFFIGVFLALVLNLLQIQRNVTLFPPDVIASIFSSAWWVPPCCGTASAVIGLLYPCIDRHLGEPHKFKREWSSVMRCVWVFVGINHASAKVDFDNNIQLSLTLAALSIGLWWTFDRSRSGFGLGVGIAFLATVVTQLLVYNGVYQYTSPDFLYVRSWLPCIFFAGGITMGNIGRQLAMYECKVIAEKSHQE [A113W] | disrupting interaction strength |
| MAEGETESPGPKKCGPYISSVTSQSVNLMIRGVVLFFIGVFLALVLALLFIQRNVTLFPPDVIASIFSSAWWVPPCCGTASAVIGLLYPCIDRHLGEPHKFKREWSSVMRCVAVFVGIFHASAKVDFDNNIQLSLTLAALSIGLWWTFDRSRSGFGLGVGIAFLATVVTQLLVYNGVYQYTSPDFLYVRSWLPCIFFAGGITMGNIGRQLAMYECKVIAEKSHQE [N47A;Q50F;N119F] | decreasing interaction strength |
| MAEGETESPGPKKCGPYISSVTSQSVNLMIRGVVLFFIGVFLALVLNLLQIQRNVTLFPPDVIASIFSSAWWVPPCCGTASAVIGLLYPCIDRHLGEPHKFKREWSSVMRCVAVFVGINFASAKVDFDNNIQLSLTLAALSIGLWWTFDRSRSGFGLGVGIAFLATVVTQLLVYNGVYQYTSPDFLYVRSWLPCIFFAGGITMGNIGRQLAMYECKVIAEKSHQE [H120F] | disrupting interaction strength |
| MAEGETESPGPKKCGPYISSVTSQSVNLMIRGVVLFFIGVFLALVLNLLQIQRNVTLFPPDVIASIFSSAWWVPPCCGTASAVIGLLYPCIDRHLGEPHKFKREWSSVMRCVAVAVGINHASAKVDFDNNIQLSLTLAALSIGLWWTFDRSRSGFGLGVGIAFLATVVTQLLVYNGVYQYTSPDFLYVRSWLPCIFFAGGITMGNIGRQLAMYECKVIAEKSHQE [F115A] | disrupting interaction strength |
| MAEGETESPGPKKCGPYISSVTSQSVNLMIRGVVLFFIGVFLALVLNLLQIQRNVTLFPPDVIASIFSSAWWVPPCCGTASAVIGLLYPCIDRHLGEPHKFKREWSSVMRCVAVFVGINHASAKVDFDNNIALSLTLAALSIGLWWTFDRSRSGFGLGVGIAFLATVVTQLLVYNGVYQYTSPDFLYVRSWLPCIFFAGGITMGNIGRQLAMYECKVIAEKSHQE [Q132A] | decreasing interaction strength |
| MAEGETESPGPKKCGPYISSVTSQSVNLMIRGVVLFFIGVFLALVLNLLQIQRNVTLFPPDVIASIFSSAWWVPPCCGTASAVIGLLYPCIDRHLGEPHKFKREWSSVMRCVAVFVGINHASAKVDFDNNIQLSLTLAALSIGLWWTFARSRSGFGLGVGIAFLATVVTQLLVYNGVYQYTSPDFLYVRSWLPCIFFAGGITMGNIGRQLAMYECKVIAEKSHQE [D149A] | disrupting interaction strength |
| MAEGETESPGPKKCGPYISSVTSQSVNLMIRGVVLFFIGVFLALVLNLLQIQRNVTLFPPDVIASIFSSAWWVPPCCGTASAVIGLLYPCIDRHLGEPHKFKREWSSVMRCVAVFVFINHASAKVDFDNNIQLSLTLAALSIGLWWTFDRSRSGFGLGVGIAFLATVVTQLLVYNGVYQYTSPDFLYVRSWLPCIFFAGGITMGNIGRQLAMYECKVIAEKSHQE [G117F] | decreasing interaction strength |
| MAEGETESPGPKKCGPYISSVTSQSVNLMIRGVVLFFIFVFLALVLNLLQIQRNVTLFPPDVIASIFSSAWWVPPCCGTASAVIGLLYPCIDRHLGEPHKFKREWSSVMRCVAVFVGINHASAKVDFDNNIQLSLTLAALSIGLWWTFDRSRSGFGLGVGIAFLATVVTQLLVYNGVYQYTSPDFLYVRSWLPCIFFAGGITMGNIGRQLAMYECKVIAEKSHQE [G39F] | decreasing interaction strength |
| MAEGETESPGPKKCGPYISSVTSQSVNLMIRGVVLFFIGVFLALVLNLLQIQRNVTLFPPDVIASIFSSAWWVPPCCGTASAVIGLLYPCIDRHLGEPHKFKREWSSVMRCVAVFVGINHASAKVDFDNNIQLSLTLAALSIGLWWTFDRSRSGFGLGVGIAFLATVVTQLLVYNGVYQYTSPDFLYVRSWLPCIFFAGGITWGNIGRQLAMYECKVIAEKSHQE [M203W] | decreasing interaction strength |
